The term Ki denotes a measure of affinity in units of concentration, obtained from inhibition or displacement. Low values mean tighter binding, high ones weaker binding.

Test [1] addresses T1, human NPY2 receptor (human, UniProt P49146 1-381).
T1 construct: whole, on cells; also called hNPY2-R; hNPY2R
T1 sequence (looked up): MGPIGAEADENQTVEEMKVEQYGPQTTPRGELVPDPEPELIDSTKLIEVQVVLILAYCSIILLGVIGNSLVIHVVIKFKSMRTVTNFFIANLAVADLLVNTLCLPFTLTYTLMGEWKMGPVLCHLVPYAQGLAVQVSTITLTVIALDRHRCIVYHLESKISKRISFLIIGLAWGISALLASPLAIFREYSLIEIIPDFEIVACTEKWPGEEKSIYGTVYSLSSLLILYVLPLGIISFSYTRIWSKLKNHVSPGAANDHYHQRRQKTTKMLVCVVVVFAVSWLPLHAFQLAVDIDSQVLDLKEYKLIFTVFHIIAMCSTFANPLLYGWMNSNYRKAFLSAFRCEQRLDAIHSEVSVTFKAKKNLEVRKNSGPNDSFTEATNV
Briefly: RLB: displacement of 125I-PYY(1-36) from hNPY2R membranes. A general note: In a radioligand displacement assay an active substance lowers the binding of a labelled ligand.

Test [2] has as its target T2, human NPY5 receptor (human, UniProt Q15761 1-445).
T2 sequence (looked up): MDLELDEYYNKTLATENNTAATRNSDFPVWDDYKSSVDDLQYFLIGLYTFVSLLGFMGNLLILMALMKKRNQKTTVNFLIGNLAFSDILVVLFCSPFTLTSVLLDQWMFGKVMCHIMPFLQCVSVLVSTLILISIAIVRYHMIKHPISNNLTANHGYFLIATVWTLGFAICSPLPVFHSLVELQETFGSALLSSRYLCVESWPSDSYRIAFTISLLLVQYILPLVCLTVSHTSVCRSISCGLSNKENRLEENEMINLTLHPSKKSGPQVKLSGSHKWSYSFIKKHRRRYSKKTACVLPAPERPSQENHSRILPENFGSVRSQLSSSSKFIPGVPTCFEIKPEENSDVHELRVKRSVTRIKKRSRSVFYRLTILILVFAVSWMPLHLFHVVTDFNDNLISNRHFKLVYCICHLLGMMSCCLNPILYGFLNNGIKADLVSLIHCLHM
Nature of the test: cell-based or functional assay.

Test [3] deals with human NPY4 receptor (human, UniProt P50391 1-375). Nature of the test: cell-based or functional assay.
For test [4], the target named is T1, human NPY2 receptor. Nature of the test: cell-based or functional assay.
Test [5] deals with T3, human NPY1 receptor (human, UniProt P25929 1-384).
T3 sequence (looked up): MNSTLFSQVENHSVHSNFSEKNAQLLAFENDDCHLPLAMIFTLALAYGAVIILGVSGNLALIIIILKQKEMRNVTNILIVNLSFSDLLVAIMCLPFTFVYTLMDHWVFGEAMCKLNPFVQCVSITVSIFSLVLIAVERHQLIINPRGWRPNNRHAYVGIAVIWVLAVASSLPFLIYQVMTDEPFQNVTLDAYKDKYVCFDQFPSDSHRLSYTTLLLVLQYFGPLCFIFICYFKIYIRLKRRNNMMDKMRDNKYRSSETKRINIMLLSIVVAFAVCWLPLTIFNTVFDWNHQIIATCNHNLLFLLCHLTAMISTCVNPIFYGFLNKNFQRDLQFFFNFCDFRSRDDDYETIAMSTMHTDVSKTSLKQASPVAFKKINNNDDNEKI
Nature of the test: cell-based or functional assay.

*1 amine or outer side, *2 acyl side, *3 side chain or, on linkers, in order; H or OH if unused. Side-chain parts run from the residue outwards. The star is where a group is joined. C18 diacid = O=C(O)CCCCCCCCCCCCCCCCC(=O)*; γGlu = O=C(O)[C@H](CCC(=O)[*:2])N[*:1]; Isovaleryl = CC(C)CC(=O)*; Ahx = NCCCCCC(=O)O Some results are limits rather than exact numbers.

human NPY4 receptor, sequence (P50391 whole entry): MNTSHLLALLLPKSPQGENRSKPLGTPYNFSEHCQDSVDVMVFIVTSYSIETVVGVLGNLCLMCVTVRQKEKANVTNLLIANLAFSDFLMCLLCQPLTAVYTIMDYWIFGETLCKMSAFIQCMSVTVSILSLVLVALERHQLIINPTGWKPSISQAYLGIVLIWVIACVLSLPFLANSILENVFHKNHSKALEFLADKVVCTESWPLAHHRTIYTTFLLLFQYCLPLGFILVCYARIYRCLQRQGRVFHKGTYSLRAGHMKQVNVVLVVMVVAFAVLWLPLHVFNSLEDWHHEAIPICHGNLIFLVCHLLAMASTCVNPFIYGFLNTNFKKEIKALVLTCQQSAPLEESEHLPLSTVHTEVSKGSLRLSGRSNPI

B1: Compound 114 (peptide)
peptide: Isovaleryl-APAK([Ahx-γGlu-C18 diacid])PEEDATPEEIQRYYVSLRHYYNWLTRQRY-NH2
SMILES: CC[C@H](C)[C@H](NC(=O)[C@H](CCC(=O)O)NC(=O)[C@H](CCC(=O)O)NC(=O)[C@@H]1CCCN1C(=O)[C@@H](NC(=O)[C@H](C)NC(=O)[C@H](CC(=O)O)NC(=O)[C@H](CCC(=O)O)NC(=O)[C@H](CCC(=O)O)NC(=O)[C@@H]1CCCN1C(=O)[C@H](CCCCNC(=O)CCCCCNC(=O)CC[C@H](NC(=O)CCCCCCCCCCCCCCCCC(=O)O)C(=O)O)NC(=O)[C@H](C)NC(=O)[C@@H]1CCCN1C(=O)[C@H](C)NC(=O)CC(C)C)[C@@H](C)O)C(=O)N[C@@H](CCC(N)=O)C(=O)N[C@@H](CCCNC(=N)N)C(=O)N[C@@H](Cc1ccc(O)cc1)C(=O)N[C@@H](Cc1ccc(O)cc1)C(=O)N[C@H](C(=O)N[C@@H](CO)C(=O)N[C@@H](CC(C)C)C(=O)N[C@@H](CCCNC(=N)N)C(=O)N[C@@H](Cc1c[nH]cn1)C(=O)N[C@@H](Cc1ccc(O)cc1)C(=O)N[C@@H](Cc1ccc(O)cc1)C(=O)N[C@@H](CC(N)=O)C(=O)N[C@@H](Cc1c[nH]c2ccccc12)C(=O)N[C@@H](CC(C)C)C(=O)N[C@H](C(=O)N[C@@H](CCCNC(=N)N)C(=O)N[C@@H](CCC(N)=O)C(=O)N[C@@H](CCCNC(=N)N)C(=O)N[C@@H](Cc1ccc(O)cc1)C(N)=O)[C@@H](C)O)C(C)C
As to B1, the Ki in test [1] was found to be 0.95 nM. The “EC50, HTRF cAMP Gi assay” value is above 5000 nM in test [2], above 5000 nM in test [3], 0.186 nM in test [4] and above 5000 nM in test [5].

B2: Compound 136 (peptide)
peptide: Isovaleryl-APEK([Ahx-γGlu-C18 diacid])PEADATPEELQRYYVALRHYYNWLTRQRY-NH2
SMILES: CC(C)CC(=O)N[C@@H](C)C(=O)N1CCC[C@H]1C(=O)N[C@@H](CCC(=O)O)C(=O)N[C@@H](CCCCNC(=O)CCCCCNC(=O)CC[C@H](NC(=O)CCCCCCCCCCCCCCCCC(=O)O)C(=O)O)C(=O)N1CCC[C@H]1C(=O)N[C@@H](CCC(=O)O)C(=O)N[C@@H](C)C(=O)N[C@@H](CC(=O)O)C(=O)N[C@@H](C)C(=O)N[C@H](C(=O)N1CCC[C@H]1C(=O)N[C@@H](CCC(=O)O)C(=O)N[C@@H](CCC(=O)O)C(=O)N[C@@H](CC(C)C)C(=O)N[C@@H](CCC(N)=O)C(=O)N[C@@H](CCCNC(=N)N)C(=O)N[C@@H](Cc1ccc(O)cc1)C(=O)N[C@@H](Cc1ccc(O)cc1)C(=O)N[C@H](C(=O)N[C@@H](C)C(=O)N[C@@H](CC(C)C)C(=O)N[C@@H](CCCNC(=N)N)C(=O)N[C@@H](Cc1c[nH]cn1)C(=O)N[C@@H](Cc1ccc(O)cc1)C(=O)N[C@@H](Cc1ccc(O)cc1)C(=O)N[C@@H](CC(N)=O)C(=O)N[C@@H](Cc1c[nH]c2ccccc12)C(=O)N[C@@H](CC(C)C)C(=O)N[C@H](C(=O)N[C@@H](CCCNC(=N)N)C(=O)N[C@@H](CCC(N)=O)C(=O)N[C@@H](CCCNC(=N)N)C(=O)N[C@@H](Cc1ccc(O)cc1)C(N)=O)[C@@H](C)O)C(C)C)[C@@H](C)O
Turning to B2, in test [1], the Ki is 1.07 nM. The “EC50, HTRF cAMP Gi assay” value in test [2] was above 5000 nM; in test [3], above 5000 nM; in test [4], 0.138 nM; in test [5] it was above 5000 nM.

B3: Compound 150 (peptide)
peptide: Isovaleryl-APEK([Ahx-γGlu-C18 diacid])PEEAASPEEIQRYYVSLRHYYNWLTRQRY-NH2
SMILES: CC[C@H](C)[C@H](NC(=O)[C@H](CCC(=O)O)NC(=O)[C@H](CCC(=O)O)NC(=O)[C@@H]1CCCN1C(=O)[C@H](CO)NC(=O)[C@H](C)NC(=O)[C@H](C)NC(=O)[C@H](CCC(=O)O)NC(=O)[C@H](CCC(=O)O)NC(=O)[C@@H]1CCCN1C(=O)[C@H](CCCCNC(=O)CCCCCNC(=O)CC[C@H](NC(=O)CCCCCCCCCCCCCCCCC(=O)O)C(=O)O)NC(=O)[C@H](CCC(=O)O)NC(=O)[C@@H]1CCCN1C(=O)[C@H](C)NC(=O)CC(C)C)C(=O)N[C@@H](CCC(N)=O)C(=O)N[C@@H](CCCNC(=N)N)C(=O)N[C@@H](Cc1ccc(O)cc1)C(=O)N[C@@H](Cc1ccc(O)cc1)C(=O)N[C@H](C(=O)N[C@@H](CO)C(=O)N[C@@H](CC(C)C)C(=O)N[C@@H](CCCNC(=N)N)C(=O)N[C@@H](Cc1c[nH]cn1)C(=O)N[C@@H](Cc1ccc(O)cc1)C(=O)N[C@@H](Cc1ccc(O)cc1)C(=O)N[C@@H](CC(N)=O)C(=O)N[C@@H](Cc1c[nH]c2ccccc12)C(=O)N[C@@H](CC(C)C)C(=O)N[C@H](C(=O)N[C@@H](CCCNC(=N)N)C(=O)N[C@@H](CCC(N)=O)C(=O)N[C@@H](CCCNC(=N)N)C(=O)N[C@@H](Cc1ccc(O)cc1)C(N)=O)[C@@H](C)O)C(C)C
Turning to B3, the Ki in test [1] worked out at 2.18 nM. The “EC50, HTRF cAMP Gi assay” value was above 5000 nM in test [2], above 5000 nM in test [3], 0.243 nM in test [4] and above 5000 nM in test [5].

B4: Compound 128 (peptide)
peptide: Isovaleryl-APEK([Ahx-γGlu-C18 diacid])PEEAATPEELQRYYVSLRHYYNWLTRQRY-NH2
SMILES: CC(C)CC(=O)N[C@@H](C)C(=O)N1CCC[C@H]1C(=O)N[C@@H](CCC(=O)O)C(=O)N[C@@H](CCCCNC(=O)CCCCCNC(=O)CC[C@H](NC(=O)CCCCCCCCCCCCCCCCC(=O)O)C(=O)O)C(=O)N1CCC[C@H]1C(=O)N[C@@H](CCC(=O)O)C(=O)N[C@@H](CCC(=O)O)C(=O)N[C@@H](C)C(=O)N[C@@H](C)C(=O)N[C@H](C(=O)N1CCC[C@H]1C(=O)N[C@@H](CCC(=O)O)C(=O)N[C@@H](CCC(=O)O)C(=O)N[C@@H](CC(C)C)C(=O)N[C@@H](CCC(N)=O)C(=O)N[C@@H](CCCNC(=N)N)C(=O)N[C@@H](Cc1ccc(O)cc1)C(=O)N[C@@H](Cc1ccc(O)cc1)C(=O)N[C@H](C(=O)N[C@@H](CO)C(=O)N[C@@H](CC(C)C)C(=O)N[C@@H](CCCNC(=N)N)C(=O)N[C@@H](Cc1c[nH]cn1)C(=O)N[C@@H](Cc1ccc(O)cc1)C(=O)N[C@@H](Cc1ccc(O)cc1)C(=O)N[C@@H](CC(N)=O)C(=O)N[C@@H](Cc1c[nH]c2ccccc12)C(=O)N[C@@H](CC(C)C)C(=O)N[C@H](C(=O)N[C@@H](CCCNC(=N)N)C(=O)N[C@@H](CCC(N)=O)C(=O)N[C@@H](CCCNC(=N)N)C(=O)N[C@@H](Cc1ccc(O)cc1)C(N)=O)[C@@H](C)O)C(C)C)[C@@H](C)O
B4: in test [1], the Ki was determined as 2.91 nM. The “EC50, HTRF cAMP Gi assay” value was above 5000 nM in test [2], above 5000 nM in test [3], 0.344 nM in test [4] and above 5000 nM in test [5].

B5: Compound 118 (peptide)
peptide: Isovaleryl-APEK([Ahx-γGlu-C18 diacid])PPEDAEPEEIQRYYVSLRHYYNWLTRQRY-NH2
SMILES: CC[C@H](C)[C@H](NC(=O)[C@H](CCC(=O)O)NC(=O)[C@H](CCC(=O)O)NC(=O)[C@@H]1CCCN1C(=O)[C@H](CCC(=O)O)NC(=O)[C@H](C)NC(=O)[C@H](CC(=O)O)NC(=O)[C@H](CCC(=O)O)NC(=O)[C@@H]1CCCN1C(=O)[C@@H]1CCCN1C(=O)[C@H](CCCCNC(=O)CCCCCNC(=O)CC[C@H](NC(=O)CCCCCCCCCCCCCCCCC(=O)O)C(=O)O)NC(=O)[C@H](CCC(=O)O)NC(=O)[C@@H]1CCCN1C(=O)[C@H](C)NC(=O)CC(C)C)C(=O)N[C@@H](CCC(N)=O)C(=O)N[C@@H](CCCNC(=N)N)C(=O)N[C@@H](Cc1ccc(O)cc1)C(=O)N[C@@H](Cc1ccc(O)cc1)C(=O)N[C@H](C(=O)N[C@@H](CO)C(=O)N[C@@H](CC(C)C)C(=O)N[C@@H](CCCNC(=N)N)C(=O)N[C@@H](Cc1c[nH]cn1)C(=O)N[C@@H](Cc1ccc(O)cc1)C(=O)N[C@@H](Cc1ccc(O)cc1)C(=O)N[C@@H](CC(N)=O)C(=O)N[C@@H](Cc1c[nH]c2ccccc12)C(=O)N[C@@H](CC(C)C)C(=O)N[C@H](C(=O)N[C@@H](CCCNC(=N)N)C(=O)N[C@@H](CCC(N)=O)C(=O)N[C@@H](CCCNC(=N)N)C(=O)N[C@@H](Cc1ccc(O)cc1)C(N)=O)[C@@H](C)O)C(C)C
B5 had a Ki in test [1] of 1 nM. Besides, the “EC50, HTRF cAMP Gi assay” value is above 5000 nM in test [2], above 5000 nM in test [3], 0.161 nM in test [4] and above 5000 nM in test [5].

The values are drawn from patent US20260015399A1 (Boehringer Ingelheim, published 2026).
